Here are results for one substance from patent US20240117038A1.

One assay has as its target human CX3CR1 (human) (UniProt P49238). Kind of assay: cell-based or functional assay.
The target of a further assay is mouse CX3CR1 (mouse) (UniProt Q9Z0D9). Put plainly: cell-based or functional assay.
Sequence of mouse CX3CR1 (mouse) (Q9Z0D9 whole entry): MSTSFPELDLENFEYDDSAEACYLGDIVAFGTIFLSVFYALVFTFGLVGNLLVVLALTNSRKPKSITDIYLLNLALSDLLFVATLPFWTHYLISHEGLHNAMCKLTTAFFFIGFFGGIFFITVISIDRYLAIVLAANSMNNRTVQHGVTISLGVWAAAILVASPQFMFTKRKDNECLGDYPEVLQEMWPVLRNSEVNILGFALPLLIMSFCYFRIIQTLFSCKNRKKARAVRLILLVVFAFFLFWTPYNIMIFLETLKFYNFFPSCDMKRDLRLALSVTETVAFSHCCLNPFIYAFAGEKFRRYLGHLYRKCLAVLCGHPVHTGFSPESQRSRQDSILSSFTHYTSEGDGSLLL

Sequence of human CX3CR1 (human) (P49238 whole entry): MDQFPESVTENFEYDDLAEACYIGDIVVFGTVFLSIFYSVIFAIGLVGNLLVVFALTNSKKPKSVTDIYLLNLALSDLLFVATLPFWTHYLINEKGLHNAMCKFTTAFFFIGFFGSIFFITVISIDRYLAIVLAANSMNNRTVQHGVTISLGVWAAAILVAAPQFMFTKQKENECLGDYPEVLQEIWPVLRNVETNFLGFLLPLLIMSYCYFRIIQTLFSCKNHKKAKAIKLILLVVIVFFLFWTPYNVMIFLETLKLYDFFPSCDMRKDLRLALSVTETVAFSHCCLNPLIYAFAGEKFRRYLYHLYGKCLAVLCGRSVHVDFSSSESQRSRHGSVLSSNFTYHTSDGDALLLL

In turn, “mouse CX3CL1 (from UniProt O35188 25-337) (ligand)” yielded an EC50, ERK phosphorylation in CHO K1 huCX3CR1 cells with human CX3CR1 (human) of 73 nM. Also, the EC50, ERK phosphorylation in CHO K1 mCX3CR1 cells with mouse CX3CR1 (mouse) was determined as 23 nM.
